Reference: paper PMC10397247
Each block holds one binder with its values, some of them ahead of it.

Key:
P9mSN = biological target: T1, P9mSN; assay: two-hybrid library CCNG1;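 further: natural log of median RNA to DNA barcode read ratio; higher means stronger binding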
T1 chain: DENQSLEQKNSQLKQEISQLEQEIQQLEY

4H3001-AA = biological target: T2, 4H3001-AA; assay: two-hybrid library CCmax; conditions: mean of both orientations;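 further: natural log of median RNA to DNA barcode read ratio; higher means stronger binding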
T2 chain: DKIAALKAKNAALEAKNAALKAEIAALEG

4H2466-AA = biological target: T3, 4H2466-AA; assay: two-hybrid library CCmax; conditions: mean of both orientations;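 further: natural log of median RNA to DNA barcode read ratio; higher means stronger binding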
T3 chain: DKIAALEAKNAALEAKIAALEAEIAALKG

4H3410-AA = biological target: T4, 4H3410-AA; assay: two-hybrid library CCmax; conditions: mean of both orientations;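 further: natural log of median RNA to DNA barcode read ratio; higher means stronger binding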
T4 chain: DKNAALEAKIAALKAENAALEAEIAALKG

4H850-AA = biological target: T5, 4H850-AA; assay: two-hybrid library CCmax; conditions: mean of both orientations
T5 chain: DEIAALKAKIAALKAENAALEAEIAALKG

4H485-AA = biological target: T6, 4H485-AA; assay: two-hybrid library CCmax; conditions: mean of both orientations
T6 chain: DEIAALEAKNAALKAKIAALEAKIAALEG

4H2343-AA = biological target: T7, 4H2343-AA; assay: two-hybrid library CCmax; conditions: mean of both orientations
T7 chain: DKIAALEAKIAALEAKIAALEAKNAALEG

4H3009-AA = biological target: T8, 4H3009-AA; assay: two-hybrid library CCmax; conditions: mean of both orientations
T8 chain: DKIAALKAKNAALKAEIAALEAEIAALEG

4H930-AA = biological target: T9, 4H930-AA; assay: two-hybrid library CCmax; conditions: mean of both orientations
T9 chain: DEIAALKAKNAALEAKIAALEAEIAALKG

4H2931-AA = biological target: T10, 4H2931-AA; assay: two-hybrid library CCmax; conditions: mean of both orientations
T10 chain: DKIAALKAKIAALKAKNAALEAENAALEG

4H3697-AA = biological target: T11, 4H3697-AA; assay: two-hybrid library CCmax; conditions: mean of both orientations
T11 chain: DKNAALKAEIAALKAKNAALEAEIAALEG

4H2725-AA = biological target: T12, 4H2725-AA; assay: two-hybrid library CCmax; conditions: mean of both orientations
T12 chain: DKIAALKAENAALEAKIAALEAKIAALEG

4H2698-AA = biological target: T13, 4H2698-AA; assay: two-hybrid library CCmax; conditions: mean of both orientations
T13 chain: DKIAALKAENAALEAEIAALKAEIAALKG

4H3016-AA = biological target: T14, 4H3016-AA; assay: two-hybrid library CCmax; conditions: mean of both orientations
T14 chain: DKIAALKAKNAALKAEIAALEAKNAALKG

4H891-AA = biological target: T15, 4H891-AA; assay: two-hybrid library CCmax; conditions: mean of both orientations
T15 chain: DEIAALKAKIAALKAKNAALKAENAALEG

4H3590-AA = biological target: T16, 4H3590-AA; assay: two-hybrid library CCmax; conditions: mean of both orientations
T16 chain: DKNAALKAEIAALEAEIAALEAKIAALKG

4H3753-AA = biological target: T17, 4H3753-AA; assay: two-hybrid library CCmax; conditions: mean of both orientations
T17 chain: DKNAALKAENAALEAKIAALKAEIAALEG

4H458-AA = biological target: T18, 4H458-AA; assay: two-hybrid library CCmax; conditions: mean of both orientations
T18 chain: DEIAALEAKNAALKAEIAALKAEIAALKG

4H452-AA = biological target: T19, 4H452-AA; assay: two-hybrid library CCmax; conditions: mean of both orientations
T19 chain: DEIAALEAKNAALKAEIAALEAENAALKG

4H3015-AA = biological target: T20, 4H3015-AA; assay: two-hybrid library CCmax; conditions: mean of both orientations
T20 chain: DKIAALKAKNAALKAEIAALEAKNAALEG

4H94-AA = biological target: T21, 4H94-AA; assay: two-hybrid library CCmax; conditions: mean of both orientations
T21 chain: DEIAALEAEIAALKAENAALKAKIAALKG

4H3165-AA = biological target: T22, 4H3165-AA; assay: two-hybrid library CCmax; conditions: mean of both orientations
T22 chain: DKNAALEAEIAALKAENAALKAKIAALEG

4H2438-AA = biological target: T23, 4H2438-AA; assay: two-hybrid library CCmax; conditions: mean of both orientations
T23 chain: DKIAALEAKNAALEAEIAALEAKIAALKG

4H3130-AA = biological target: T24, 4H3130-AA; assay: two-hybrid library CCmax; conditions: mean of both orientations
T24 chain: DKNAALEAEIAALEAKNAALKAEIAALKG

4H536-AA = biological target: T25, 4H536-AA; assay: two-hybrid library CCmax; conditions: mean of both orientations
T25 chain: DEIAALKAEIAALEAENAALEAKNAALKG

4H745-AA = biological target: T26, 4H745-AA; assay: two-hybrid library CCmax; conditions: mean of both orientations
T26 chain: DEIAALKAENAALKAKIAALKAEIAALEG

4H3120-AA = biological target: T27, 4H3120-AA; assay: two-hybrid library CCmax; conditions: mean of both orientations
T27 chain: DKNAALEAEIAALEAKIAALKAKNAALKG

4H310-AA = biological target: T28, 4H310-AA; assay: two-hybrid library CCmax; conditions: mean of both orientations
T28 chain: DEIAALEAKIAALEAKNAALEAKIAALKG

4H2649-AA = biological target: T29, 4H2649-AA; assay: two-hybrid library CCmax; conditions: mean of both orientations
T29 chain: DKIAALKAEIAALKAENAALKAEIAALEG

4H2473-AA = biological target: T30, 4H2473-AA; assay: two-hybrid library CCmax; conditions: mean of both orientations
T30 chain: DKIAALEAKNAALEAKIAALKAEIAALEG

4H710-AA = biological target: T31, 4H710-AA; assay: two-hybrid library CCmax; conditions: mean of both orientations
T31 chain: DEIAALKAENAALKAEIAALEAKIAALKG

4H3073-AA = biological target: T32, 4H3073-AA; assay: two-hybrid library CCmax; conditions: mean of both orientations
T32 chain: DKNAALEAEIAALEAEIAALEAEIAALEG

4H3395-AA = biological target: T33, 4H3395-AA; assay: two-hybrid library CCmax; conditions: mean of both orientations
T33 chain: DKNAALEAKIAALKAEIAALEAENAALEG

4H629-AA = biological target: T34, 4H629-AA; assay: two-hybrid library CCmax; conditions: mean of both orientations
T34 chain: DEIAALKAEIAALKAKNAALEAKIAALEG

4H2774-AA = biological target: T35, 4H2774-AA; assay: two-hybrid library CCmax; conditions: mean of both orientations
T35 chain: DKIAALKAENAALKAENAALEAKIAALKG

4H_APH = biological target: T36, 4H_APH; assay: two-hybrid library CCmax; conditions: mean of both orientations
T36 chain: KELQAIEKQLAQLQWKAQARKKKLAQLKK

GCN2_T = assay: two-hybrid library CCmax; conditions: mean of both orientations
4H249-AA = biological target: T37, 4H249-AA; assay: two-hybrid library CCmax; conditions: mean of both orientations
T37 chain: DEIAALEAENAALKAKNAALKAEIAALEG

4H56-AA = biological target: T38, 4H56-AA; assay: two-hybrid library CCmax; conditions: mean of both orientations
T38 chain: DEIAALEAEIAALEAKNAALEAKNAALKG

4H_GCN4 = assay: two-hybrid library CCmax; conditions: mean of both orientations
4H_GCN4, sequence (chain, as listed by the source): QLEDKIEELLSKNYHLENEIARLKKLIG

4H3381-AA = biological target: T39, 4H3381-AA; assay: two-hybrid library CCmax; conditions: mean of both orientations
T39 chain: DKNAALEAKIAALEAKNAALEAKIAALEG

4H3438-AA = biological target: T40, 4H3438-AA; assay: two-hybrid library CCmax; conditions: mean of both orientations
T40 chain: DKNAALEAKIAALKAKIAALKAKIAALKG

4H347-AA = biological target: T41, 4H347-AA; assay: two-hybrid library CCmax; conditions: mean of both orientations
T41 chain: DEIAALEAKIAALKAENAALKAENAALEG

4H2592-AA = biological target: T42, 4H2592-AA; assay: two-hybrid library CCmax; conditions: mean of both orientations
T42 chain: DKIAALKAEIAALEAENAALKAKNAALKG

4H406-AA = biological target: T43, 4H406-AA; assay: two-hybrid library CCmax; conditions: mean of both orientations
T43 chain: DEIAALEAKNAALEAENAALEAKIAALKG

4H909-AA = biological target: T44, 4H909-AA; assay: two-hybrid library CCmax; conditions: mean of both orientations
T44 chain: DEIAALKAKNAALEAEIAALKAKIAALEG

4H_BCR = biological target: T45, 4H_BCR; assay: two-hybrid library CCmax; conditions: mean of both orientations
T45 chain: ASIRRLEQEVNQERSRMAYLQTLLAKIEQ

4H797-AA = biological target: T46, 4H797-AA; assay: two-hybrid library CCmax; conditions: mean of both orientations
T46 chain: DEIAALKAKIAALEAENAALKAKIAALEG

4H3865-AA = biological target: T47, 4H3865-AA; assay: two-hybrid library CCmax; conditions: mean of both orientations
T47 chain: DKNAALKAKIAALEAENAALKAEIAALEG

4H2330-AA = biological target: T48, 4H2330-AA; assay: two-hybrid library CCmax
T48 chain: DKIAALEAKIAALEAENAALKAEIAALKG

4H570-AA = biological target: T49, 4H570-AA; assay: two-hybrid library CCmax; conditions: mean of both orientations
T49 chain: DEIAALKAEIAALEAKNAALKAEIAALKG

4H2865-AA = biological target: T50, 4H2865-AA; assay: two-hybrid library CCmax; conditions: mean of both orientations
T50 chain: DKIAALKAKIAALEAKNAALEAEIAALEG

4H2389-AA = biological target: T51, 4H2389-AA; assay: two-hybrid library CCmax; conditions: mean of both orientations
T51 chain: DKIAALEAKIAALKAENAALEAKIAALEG

4H2732-AA = biological target: T52, 4H2732-AA; assay: two-hybrid library CCmax; conditions: mean of both orientations
T52 chain: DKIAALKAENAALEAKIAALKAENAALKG

- interaction score (P9mSN): -1.56
Binder: DENQSLEQKNSQLKQEISQLEQEIQQLEY [P9mSN]

- interaction score (4H3001-AA): -1.21
- interaction score (4H2466-AA): -1.14
- interaction score (4H3410-AA): 0.287
- interaction score (4H850-AA): 1.43
- interaction score (4H485-AA): -1.35
- interaction score (4H2343-AA): -1.3
- interaction score (4H3009-AA): -1.35
- interaction score (4H930-AA): -1.22
- interaction score (4H2931-AA): -1.63
- interaction score (4H3697-AA): -1.56
- interaction score (4H2725-AA): -1.57
- interaction score (4H2698-AA): -1.05
- interaction score (4H3016-AA): -1.44
- interaction score (4H891-AA): -1.54
- interaction score (4H3590-AA): -1.06
- interaction score (4H3753-AA): -1.31
- interaction score (4H458-AA): -1.07
- interaction score (4H452-AA): -1.85
- interaction score (4H3015-AA): -1.54
- interaction score (4H94-AA): 0.579
- interaction score (4H3165-AA): -1.39
- interaction score (4H2438-AA): -0.853
- interaction score (4H3130-AA): 0.306
- interaction score (4H536-AA): -1.33
- interaction score (4H745-AA): -1.42
- interaction score (4H3120-AA): -1.29
- interaction score (4H310-AA): -0.633
- interaction score (4H2649-AA): 0.31
- interaction score (4H2473-AA): -0.502
- interaction score (4H710-AA): -1.49
- interaction score (4H3073-AA): -1.5
- interaction score (4H3395-AA): -1.56
- interaction score (4H629-AA): -1.21
- interaction score (4H2774-AA): -1.55
- interaction score (4H_APH): -2.24
- interaction score (GCN2_T): -1.77
- interaction score (4H249-AA): -1.48
- interaction score (4H56-AA): -1.47
- interaction score (4H_GCN4): -1.88
- interaction score (4H3381-AA): -1.67
- interaction score (4H3438-AA): -1.59
- interaction score (4H347-AA): -0.642
- interaction score (4H2592-AA): -0.144
- interaction score (4H406-AA): -0.544
- interaction score (4H909-AA): -1.17
- interaction score (4H_BCR): -2.26
- interaction score (4H797-AA): -0.788
- interaction score (4H3865-AA): 0.945
- interaction score (4H2330-AA): 2.14
- interaction score (4H570-AA): 0.717
- interaction score (4H2865-AA): -0.443
- interaction score (4H2389-AA): -0.00244
- interaction score (4H2732-AA): -1.45
Binder: DKIAALEAKIAALEAENAALKAEIAALKG [4H2330-AA]
